Among the data in patent US4016042A, “Substrate for the quantitative determination of enzymes” (Pentapharm A.G., priority 1974, dated 1977) are Km values, retold here.

Usually Km stands for the concentration of substrate that gives half-maximal velocity.

The test system of the series is N=C(N)NCCC[C@H](NC(=O)[C@H](Cc1ccccc1)NC(=O)[C@@H]1CCCN1C(=O)c1ccccc1)C(=O)Nc1ccc([N+](=O)[O-])cc1. The experiment in a line: Km and vmax determination with substrate (Lineweaver-Burk), plasma kallikrein. The series is classed as biochemical. As to conditions: other: plasma kallikrein; substrate concentration varied, enzyme constant; measured at 405 nm. The protocol:
As is evident from equation (2) constants Km and k3 determine the activity of the enzyme substrate for a given enzyme. For determining these constants the following procedure is followed:
The enzyme and the substrate are mixed in a buffer solution, and the reaction is followed spectrophotometrically for 2 to 30 minutes. The concentration of substrate [S] is varied, whereas the enzyme concentration [E] is kept constant. If the extinction (OD) (= optical density) is plotted in a co-ordinate system as a function of time, a curve is obtained the tangent of which (difference in extinction per minute, Δ OD/minute, from which the quantity in μmoles of pNA/min (v) can be calculated) at time zero corresponds to the ideal course of the hydrolysis. By means of this tangent the initial rate of the hydrolysis can be determined.
If 1/v is plotted against 1/[S], a Lineweaver-Burk diagram (cf. "Kurzes Lehrbuch der Biochemie" by P. KARSON, Georg Thieme-Verlag, Stuttgart, 1967, p. 70) is obtained from which vmax and Km can be determined graphically.
Km and k3 = vmax /E were determined with N^α-Bz-Pro-Phe-Arg-pNA^. HCl (i.e. the substrate prepared according to Example 1) for plasma kallikrein, trypsin, plasmin and thrombin.

Sequence of plasma kallikrein (Homo sapiens) (chain, as listed by the source): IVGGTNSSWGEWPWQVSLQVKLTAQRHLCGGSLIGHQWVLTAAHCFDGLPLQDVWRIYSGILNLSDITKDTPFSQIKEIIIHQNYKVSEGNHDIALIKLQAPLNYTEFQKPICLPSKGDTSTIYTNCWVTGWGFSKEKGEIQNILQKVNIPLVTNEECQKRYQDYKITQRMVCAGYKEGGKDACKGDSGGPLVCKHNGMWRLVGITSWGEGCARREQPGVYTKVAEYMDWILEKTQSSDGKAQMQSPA

As to plasma kallikrein (Homo sapiens), the Michaelis-Menten constant (Km) stood at 282 µM.
